In doi:10.1101/2023.09.15.557927 (bioRxiv, 2023):
No end group written: not given here. *: point of attachment. FITC = O=C1OC2(c3ccc(O)cc3Oc3cc(O)ccc32)c2ccc(NC(=S)*)cc21

Assays:
[1] = biological target: T1, 6xHis-tagged LC8 (DYNLL2) (human, UniProt Q96FJ2 1-89); test: fluorescence polarisation
[2] = biological target: T1, 6xHis-tagged LC8 (DYNLL2); test: SPR

B1: FITC-labeled BMF peptide (FITC-TSQEDKATQTL) (peptide)
peptide: {FITC}-TSQEDKATQTL
Question: Does B1 bind [1]?
Answer: binds

B2: OFD1 peptide (KESCNMETQTS) (peptide)
peptide: KESCNMETQTS
Question: B2 was tested. Which Kd [2] did it give?
Answer: 12.5 ± 1.3 µM

Question: What about the Kd [1] of the same binder?
Answer: 12.8 µM
